This note sets out measurements from patent US20170349667A1 (ARGEN X B V, published 2017).

Assay [1] addresses T1, human c-Met ECD (aa 25-932) with His tag (human, Glycoprotein. Furin cleavage after residue 307 gives disulfide-linked alpha and beta parts; written here as one chain.).
T1 construct: also called human c-Met (WT)
T1 chain: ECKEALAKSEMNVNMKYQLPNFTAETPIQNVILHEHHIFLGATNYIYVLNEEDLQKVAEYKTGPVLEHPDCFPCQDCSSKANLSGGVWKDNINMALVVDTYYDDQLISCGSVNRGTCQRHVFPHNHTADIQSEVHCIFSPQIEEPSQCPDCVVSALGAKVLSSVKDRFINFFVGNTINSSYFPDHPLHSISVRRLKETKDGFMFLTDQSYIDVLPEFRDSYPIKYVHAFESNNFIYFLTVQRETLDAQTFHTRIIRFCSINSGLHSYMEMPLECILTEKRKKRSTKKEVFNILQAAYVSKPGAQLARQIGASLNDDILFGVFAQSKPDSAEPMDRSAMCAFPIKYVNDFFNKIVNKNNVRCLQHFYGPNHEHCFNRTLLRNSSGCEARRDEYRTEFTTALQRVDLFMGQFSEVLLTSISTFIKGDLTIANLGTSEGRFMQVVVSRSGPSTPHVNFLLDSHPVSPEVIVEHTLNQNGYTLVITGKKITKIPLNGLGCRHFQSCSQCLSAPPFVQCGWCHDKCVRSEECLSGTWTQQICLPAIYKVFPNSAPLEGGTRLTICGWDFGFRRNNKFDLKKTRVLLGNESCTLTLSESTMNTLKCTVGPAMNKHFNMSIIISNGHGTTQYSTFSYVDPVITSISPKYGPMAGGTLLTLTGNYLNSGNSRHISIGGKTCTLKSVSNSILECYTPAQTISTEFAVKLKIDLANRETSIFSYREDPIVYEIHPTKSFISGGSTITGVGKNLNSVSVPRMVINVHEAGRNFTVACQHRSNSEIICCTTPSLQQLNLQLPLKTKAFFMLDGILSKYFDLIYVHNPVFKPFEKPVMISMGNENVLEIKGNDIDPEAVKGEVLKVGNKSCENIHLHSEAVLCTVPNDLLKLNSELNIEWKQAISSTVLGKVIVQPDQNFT
Put plainly: ELISA: 200 ng of recombinant c-Met ECD protein coated, mAb 1 h, HRP goat anti-human antibody, TMB, OD 620 nm. As for the experimental part: 200 ng of the different chimeric recombinant cMet proteins were immobilized on maxisorb plates overnight at 4° C. After washing with PBS, the plates were blocked with 0.1% casein for 2 h at RT, before the mAbs were added and allowed to bind to the c-Met for 1 h at RT. After washing, HRP-conjugated goat anti-human antibody (diluted 1/5000, Jackson Labs) was added and incubated for 1 h at RT before additional washing and addition of TMB. The optical density at 620 nm was read and the values were represented in a graph against the concentration of mAbs.
(In an ELISA, binding on a coated surface is turned into a signal by an enzyme label.)

Assay [2] has as its target T2, Decoy c-Met (extracellular domain of human c-Met) (human, Glycoprotein. In cells it is cleaved by furin after residue 307 into disulfide-linked alpha and beta parts; written here as one chain.).
T2 construct: construct after Basilico et al. 2008; also called Decoy Met; monomeric Decoy Met
T2 chain: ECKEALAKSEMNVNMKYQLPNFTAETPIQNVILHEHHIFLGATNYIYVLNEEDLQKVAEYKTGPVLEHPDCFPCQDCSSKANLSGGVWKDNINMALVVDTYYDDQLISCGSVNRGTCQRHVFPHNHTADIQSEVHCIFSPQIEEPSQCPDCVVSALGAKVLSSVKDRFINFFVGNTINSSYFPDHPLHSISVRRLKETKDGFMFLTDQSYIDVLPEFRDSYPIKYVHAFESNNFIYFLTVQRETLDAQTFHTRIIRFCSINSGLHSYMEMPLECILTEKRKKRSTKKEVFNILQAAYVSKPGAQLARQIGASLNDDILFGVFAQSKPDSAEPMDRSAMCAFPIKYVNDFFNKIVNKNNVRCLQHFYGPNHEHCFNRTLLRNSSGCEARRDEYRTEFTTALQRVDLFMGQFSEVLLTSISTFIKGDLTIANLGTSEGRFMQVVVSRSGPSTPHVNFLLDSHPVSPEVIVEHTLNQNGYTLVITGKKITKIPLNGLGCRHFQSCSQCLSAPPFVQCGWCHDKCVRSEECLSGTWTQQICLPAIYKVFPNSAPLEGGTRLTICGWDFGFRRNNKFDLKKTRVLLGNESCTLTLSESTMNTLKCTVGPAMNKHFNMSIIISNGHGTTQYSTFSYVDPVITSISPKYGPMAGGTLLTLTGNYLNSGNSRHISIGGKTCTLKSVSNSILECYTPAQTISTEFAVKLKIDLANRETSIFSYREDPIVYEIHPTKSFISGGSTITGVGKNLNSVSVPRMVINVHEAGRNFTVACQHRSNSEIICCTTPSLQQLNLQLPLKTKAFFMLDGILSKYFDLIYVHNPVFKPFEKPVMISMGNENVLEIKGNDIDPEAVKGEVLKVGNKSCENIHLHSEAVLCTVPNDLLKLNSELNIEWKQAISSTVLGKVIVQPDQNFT
Kind of assay: binding ELISA, human c-Met (Decoy).

Assay [3] concerns the target T3, llama-human c-Met chimera L19 (aa572-909) (human; Llama glama).
T3 construct: label probably LI9
Kind of assay: ELISA, mAb coated at 2 µg/ml, chimera added, streptavidin-HRP. An excerpt: (§1) An ELISA was run to investigate the binding of the mAbs to the different chimeras.

For assay [4], the target named is llama-human c-Met chimera LP7*(aa523-909), T737I (human; Llama glama). The assay is described as above.
Excerpt: as §1

Assay [5] deals with T4, llama-human c-Met chimera L18 (aa540-909) (human; Llama glama).
T4 construct: label probably LI8
The description is as above.
Excerpt: as §1

The target of assay [6] is llama-human c-Met chimera LP6 (aa497-909) (human; Llama glama). Described as above.
Excerpt: as §1

Assay [7] deals with T5, llama-human c-Met chimera L110 (aa608-909) (human; Llama glama).
T5 construct: label probably LI10
The assay is described as above.
Excerpt: as §1

In assay [8] the target is llama-human c-Met chimera LS1 (aa1-98) (Llama glama; human). Described as above.
Excerpt: as §1

Assay [9] deals with T6, llama-human c-Met chimera L111 (aa634-909) (human; Llama glama).
T6 construct: label probably LI11
The description is as above.
Excerpt: as §1

In assay [10] the target is human c-Met on cells (MKN-45, A549, HPAF, BxPC3) (human, UniProt P08581 25-1390). Kind of assay: cell-based or functional assay.
For assay [11], the target named is T7, HMet (human c-Met, control of Table 18) (human).
T7 chain: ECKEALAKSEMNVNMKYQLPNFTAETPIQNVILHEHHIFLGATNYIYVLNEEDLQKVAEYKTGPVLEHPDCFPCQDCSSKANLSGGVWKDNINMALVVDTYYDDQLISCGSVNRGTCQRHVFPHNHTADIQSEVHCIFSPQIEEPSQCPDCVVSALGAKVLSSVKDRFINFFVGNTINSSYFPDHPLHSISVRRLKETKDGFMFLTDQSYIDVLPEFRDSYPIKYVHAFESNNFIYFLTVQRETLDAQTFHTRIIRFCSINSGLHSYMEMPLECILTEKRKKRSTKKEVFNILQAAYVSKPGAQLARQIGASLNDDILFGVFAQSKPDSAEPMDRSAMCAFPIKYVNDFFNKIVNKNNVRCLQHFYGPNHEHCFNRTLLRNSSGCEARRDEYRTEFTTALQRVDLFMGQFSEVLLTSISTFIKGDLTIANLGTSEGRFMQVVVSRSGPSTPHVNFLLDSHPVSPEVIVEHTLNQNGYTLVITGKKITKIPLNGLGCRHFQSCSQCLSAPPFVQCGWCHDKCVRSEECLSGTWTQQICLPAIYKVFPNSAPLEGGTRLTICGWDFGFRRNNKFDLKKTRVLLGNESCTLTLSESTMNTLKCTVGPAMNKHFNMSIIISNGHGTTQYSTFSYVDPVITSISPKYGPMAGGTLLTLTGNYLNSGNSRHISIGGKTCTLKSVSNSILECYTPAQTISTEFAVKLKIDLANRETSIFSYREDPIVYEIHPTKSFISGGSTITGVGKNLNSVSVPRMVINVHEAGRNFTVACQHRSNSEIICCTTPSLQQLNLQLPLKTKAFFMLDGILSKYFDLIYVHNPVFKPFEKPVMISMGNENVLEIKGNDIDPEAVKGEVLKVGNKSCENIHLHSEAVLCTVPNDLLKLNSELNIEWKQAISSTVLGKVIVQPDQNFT
Put plainly: ELISA, mAb coated at 2 µg/ml, c-Met added, streptavidin-HRP.
Excerpt: as §1

In assay [12] the target is T8, recombinant dimeric c-Met (R&D systems, 358-MT/CF) (human, UniProt P08581 25-932).
T8 construct: bought protein; also called recombinant c-Met; Fc-Met; not shown: C-terminal Fc portion (captured with anti-human Fc) and a His tag (captured with anti-His)
Kind of assay: competition ELISA: recombinant dimeric c-Met captured on the plate, mAb dilutions, then 25 ng/ml N-terminally biotinylated HGF as competitor, strep-HRP, 620 nm; % competition against the controls. As for the experimental part: Competition with N-terminally biotinylated HGF for binding to immobilized c-Met was performed using an ELISA-based competition assay. Five μg/ml mouse anti-His antibodies (Serotech) was immobilized on a maxisorb plate and, after blocking with 1% casein in PBS for 2 h, 100 ng/ml recombinant dimeric c-Met was added and incubated for 1 h at room temperature. After washing, dilutions of the antibodies were added and allowed to bind to the captured c-Met for 30 minutes, before 25 ng/ml N-terminally biotinylated HGF (R&D systems, 294-HGN/CF) was added. Biotinylated HGF was incubated at room temperature for 1 h before washing. Horseradish-conjugated streptavidin (strep-HRP) was added and incubated for an additional hour. TMB was added and the plate read at 620 nm. An isotype control (hIgG1λ) was included as a control as well as murine 5D5 antibody. Competition was expressed as percentage competition as compared to the controls (strep-HRP only or hIgG1λ) and plotted against the concentration of antibodies. An IC₅₀ was calculated using GraphPad Prism (Table 10). Antibodies 13E6 and 20A11 only displaced HGF partially (about 50%), which may be related to the epitope these two mAbs recognize on the c-Met.

B1: 13E6 mAb (antibody, human IgG1, V domains shown)
VH: QVQLQESGGDLVQPGGSLRLSCAASGFTFDDYVMNWVRQAPGKGLEWISAINWNGGSTYYAESMKGRFTISRDNAKNTLYLQMYSLQSDDTAVYYCVKDTVVSGNGYWGQGTQVTVSS
VL: QSVLTQPPSVSGTLGKTVTISCAGTSSDIGDYNYVSWYQQLPGTAPKLLIYDVNKRASGIPDRFSGSKSGNTASLSISGLQSEDEADYYCASYRSRNDYAFGGGTKLTVL
notes: human IgG1 constant domains and human C lambda
Usually EC50 (read off the curve) stands for the midpoint of the concentration-response curve. What is called EC50 is the concentration that produces a half-maximal response. With B1, the “EC50 (read off the curve)” value in assay [1] was roughly 1 nM. In [2], this molecule came in with an EC50 of 0.19 nM.

B2: 12G4 mAb (antibody, human IgG1, V domains shown)
VH: QLQLVESGGGMAQPGGSLKLSCAASGFTFDDYAMTWVRQAPGKGLEWLSTISWNDINTYYAESMKDRFTISRDNAKNTLYLQMNSLESEDTAVYYCAKRRDNYYGTSGEYDYWGQGTQVTVSS
VL: QSALTQPPSVSGTLGKTVTISCAGTSSDIGNYNYVSWYQQLPGTAPKLLIYEVNKRPSGIPDRFSGSKSGNTASLSISGLQSEDEADYYCASYRSSNNVVFGGGTKLTVL
notes: llama VH/V lambda fused to human IgG1 constant domains and human C lambda
For B2, the EC50 in assay [2] turned out to be 0.42 nM.

B3: 36C4 mAb (antibody, human IgG1, V domains shown)
VH: QVQLVESGPGLVKPSQTLSLTCAVSGGSITTNYYYWSWIRQSPGKGLEWMGVIAYDGSTDYSPSLKSRTSISRDTSKNQFSLQLSSVTPEDTAVYYCARDVRVIATGWATANALDAWGQGTLVTVSS
VL: QSVLTQPPSVSGSPGKTVTISCAGTSSDVGYGNYVSWYQQLPGTAPKLLIFAVSYRASGIPDRFSGSKSGNTAFLTISGLQSEDEADYYCASYRSSNNAAVFGGGTHLTVL
notes: as for B1
For B3, in [1], the “EC50 (read off the curve)” value was roughly 0.6 nM. Also, the EC50 is 0.047 mg/L in assay [3]; 0.055 mg/L in assay [4]; 0.047 mg/L in [5]; 0.05 mg/L in assay [6]; 0.047 mg/L in [7]; 0.068 mg/L in assay [8]. The values for the EC50 in assay [9], in assay [2] and in [11] were 0.045 mg/L, 0.13 nM and 0.06 mg/L, respectively. Also, the “antibody-induced proliferation of BxPC3 cells (agonism)” value in assay [10] was < 20 % of the proliferation obtained with 75 ng/ml HGF.

B4: murine 5D5 antibody (antibody, V domains shown)
VH: QVQLQQSGPELVRPGASVKMSCRASGYTFTSYWLHWVKQRPGQGLEWIGMIDPSNSDTRFNPNFKDKATLNVDRSSNTAYMLLSSLTSADSAVYYCATYGSYVSPLDYWGQGTSVTVSS
VL: DIMMSQSPSSLTVSVGEKVTVSCKSSQSLLYTSSQKNYLAWYQQKPGQSPKLLIYWASTRESGVPDRFTGSGSGTDFTLTITSVKADDLAVYYCQQYYAYPWTFGGGTKLEIK
In the case of B4, the “IC50 (read off the curve)” value in [12] was roughly 0.7 nM.
